This assay concerns the target wild-type HCoV-229E Nsp9 (non-structural protein 9 of human coronavirus 229E) (human coronavirus 229E). As to the kind of experiment: crystal structure.

Consider “wild-type HCoV-229E Nsp9 (non-structural protein 9 of human coronavirus 229E) (natural protein)”, for which the stoichiometry N was 2.

What is called stoichiometry N is the number of molecules, sites or subunits per partner or assembly.

Source of the values: PMC7094590.
